± gives the uncertainty stated by the source.

These results are taken from the Human Domainome abundance scans (Beltran et al. 2025).

To fix the notation:
B1: Probable E3 ubiquitin-protein ligase MID2, residues 191 to 235; numbered along this chain, Q9UJV3 (parent)
chain: RGITCLDHENEKVNMYCVSDDQLICALCKLVGRHRDHQVASLNDR

This data set covers variants of B1. Briefly: abundance fitness (aPCA) (normalised: wild type 0, dead -1); higher = more abundant; growth selection in yeast, the domain comes from the species named. To be noted: Homo sapiens.
On to RGITCLDHENEKVNMYCVSDDQLICALCKLVGRHRDHQVAMLNDR [S41M], for which the abundance fitness was -0.222 ± 0.12.

Consider RGITCLDHENEKVNMYCVSDDQLICALCKLVGRHIDHQVASLNDR [R35I], for which the abundance fitness stood at 0.303 ± 0.22.

With RGITCLDHENEKVNMYCVSDDQLICALCKLVGRHKDHQVASLNDR [R35K], the abundance fitness was 0.019 ± 0.083.

As for RGITCLDHENEKVNMYCVSDDQLICALCKLVGRHGDHQVASLNDR [R35G], the abundance fitness is -0.002 ± 0.05.

As for RGITCLDHENEKVNMYCVSDDQLICALCKLVGRHPDHQVASLNDR [R35P], the abundance fitness was -0.195 ± 0.069.

Take RGITCLDHENEKVNMYCVSDDQLICALCKLVGRHVDHQVASLNDR [R35V]: the abundance fitness is -0.05 ± 0.061.

For the variant RGITCLDHENEKVNMYCVSDDQLICALCKLVGRHMDHQVASLNDR [R35M], the abundance fitness is -0.024 ± 0.1.

On to RGITCLDHENEKVNMYCVSDDQLICALCKLVGRHHDHQVASLNDR [R35H], for which the abundance fitness was -0.471 ± 0.32.

As for RGITCLDHENEKVNMYCVSDDQLICALCKLVGRHTDHQVASLNDR [R35T], the abundance fitness was -0.195 ± 0.072.

Regarding RGITCLDHENEKVNMYCVSDDQLICALCKLVGRHFDHQVASLNDR [R35F], the abundance fitness was -0.529 ± 0.12.

Consider RGITCLDHENEKVNMYCVSDDQLICALCKLVGRHDDHQVASLNDR [R35D], for which the abundance fitness is -0.242 ± 0.1.

For RGITCLDHENEKVNMYCVSDDQLICALCKLVGRHEDHQVASLNDR [R35E], the abundance fitness came to 0.09 ± 0.092.

Regarding RGITCLDHENEKVNMYCVSDDQLICALCKLVGRHLDHQVASLNDR [R35L], the abundance fitness was -0.321 ± 0.068.

For RGITCLDHENEKVNMYCVSDDQLICALCKLVGRHWDHQVASLNDR [R35W], the abundance fitness was -0.602 ± 0.093.

Take RGITCLDHENEKVNMYCVSDDQLICALCKLVGRHQDHQVASLNDR [R35Q]: the abundance fitness was -0.11 ± 0.19.

On to RGITCLDHENEKVNMYCVSDDQLICALCKLVGRHRDHQVASFNDR [L42F], for which the abundance fitness is -0.133 ± 0.16.

As for RGITCLDHENEKVNMYCVSDDQLICALCKLVGRHRDHQVASNNDR [L42N], the abundance fitness stood at 0.045 ± 0.13.

Turning to RGITCLDHENEKVNMYCVSDDQLICALCKLVGRHRDHQVASANDR [L42A], the abundance fitness came to 0.118 ± 0.056.

As for RGITCLDHENEKVNMYCVSDDQLICALCKLVGRHRDHQVASDNDR [L42D], the abundance fitness was -0.046 ± 0.1.

RGITCLDHENEKVNMYCVSDDQLICALCKLVGRHRDHQVASMNDR [L42M]: the abundance fitness is -0.031 ± 0.06.

With RGITCLDHENEKVNMYCVSDDQLICALCKLVGRHRDHQVASGNDR [L42G], the abundance fitness is -0.071 ± 0.055.

As for RGITCLDHENEKVNMYCVSDDQLICALCKLVGRHRDHQVASCNDR [L42C], the abundance fitness worked out at 0.269 ± 0.14.

For RGITCLDHENEKVNMYCVSDDQLICALCKLVGRHRDHQVASPNDR [L42P], the abundance fitness is -0.363 ± 0.21.

For RGITCLDHENEKVNMYCVSDDQLICALCKLVGRHRDHQVASENDR [L42E], the abundance fitness is 0.091 ± 0.14.

For RGITCLDHENEKVNMYCVSDDQLICALCKLVGRHRDHQVASKNDR [L42K], the abundance fitness was -0.054 ± 0.073.

For the variant RGITCLDHENEKVNMYCVSDDQLICALCKLVGRHRDHMVASLNDR [Q38M], the abundance fitness was -0.25 ± 0.085.

Regarding RGITCLDHENEKVNMYCVSDDQLICALCKLVGRHRDHCVASLNDR [Q38C], the abundance fitness is -0.152 ± 0.1.

Take RGITCLDHENEKVNMYCVSDDQLICALCKLVGRHRDHFVASLNDR [Q38F]: the abundance fitness is -0.69 ± 0.18.

With RGITCLDHENEKVNMYCVSDDQLICALCKLVGRHRDHVVASLNDR [Q38V], the abundance fitness was 0.005 ± 0.059.

For the variant RGITCLDHENEKVNMYCVSDDQLICALCKLVGRHRDHAVASLNDR [Q38A], the abundance fitness is -0.113 ± 0.073.

With RGITCLDHENEKVNMYCVSDDQLICALCKLVGRHRDHEVASLNDR [Q38E], the abundance fitness stood at 0.105 ± 0.054.

Turning to RGITCLDHENEKVNMYCVSDDQLICALCKLVGRHRDHRVASLNDR [Q38R], the abundance fitness is -0.002 ± 0.053.

RGITCLDHENEKVNMYCVSDDQLICALCKLVGRHRDHWVASLNDR [Q38W]: the abundance fitness was -0.369 ± 0.098.

Turning to RGITCLDHENEKVNMYCVSDDQLICALCKLVGRHRDHGVASLNDR [Q38G], the abundance fitness is -0.191 ± 0.052.

In the case of RGITCLDHENEKVNMYCVSDDQLICALCKLVGRHRDHNVASLNDR [Q38N], the abundance fitness is -0.104 ± 0.2.

RGITCLDHENEKVNMYCVSDDQLICALCKLVGRHRDHIVASLNDR [Q38I]: the abundance fitness is -0.357 ± 0.21.

In the case of RGITCLDHENEKVNMYCVSDDQLICALCKLVGRHRDHTVASLNDR [Q38T], the abundance fitness is -0.195 ± 0.1.

Regarding RGITCLDHENEKVNMYCVSDDQLICALCKLVGRHRDHPVASLNDR [Q38P], the abundance fitness is -0.092 ± 0.056.

As to RGITCLDHENEKVNMYCVSDDQLICALCKLVGRHRDHYVASLNDR [Q38Y], the abundance fitness is -0.16 ± 0.21.

As for RGITCLDHENEKVNMYCVSDDQLICALCKLVGRHRDHLVASLNDR [Q38L], the abundance fitness is -0.259 ± 0.067.

As to RGITCLDHENEKVNMYCVSDDQLICALCKLVGRHRDHDVASLNDR [Q38D], the abundance fitness came out at 0.117 ± 0.089.

For RGITCLDHENEKVNMYCVSDDQLICALCKLVGRHRDHQVPSLNDR [A40P], the abundance fitness was -0.415 ± 0.095.

Turning to RGITCLDHENEKVNMYCVSDDQLICALCKLVGRHRDHQVDSLNDR [A40D], the abundance fitness turned out to be 0.043 ± 0.077.

In the case of RGITCLDHENEKVNMYCVSDDQLICALCKLVGRHRDHQVHSLNDR [A40H], the abundance fitness was -0.296 ± 0.18.

For the variant RGITCLDHENEKVNMYCVSDDQLICALCKLVGRHRDHQVFSLNDR [A40F], the abundance fitness was -0.176 ± 0.1.

Turning to RGITCLDHENEKVNMYCVSDDQLICALCKLVGRHRDHQVCSLNDR [A40C], the abundance fitness is -0.063 ± 0.068.

Regarding RGITCLDHENEKVNMYCVSDDQLICALCKLVGRHRDHQVRSLNDR [A40R], the abundance fitness was found to be 0.014 ± 0.052.

RGITCLDHENEKVNMYCVSDDQLICALCKLVGRHRDHQVMSLNDR [A40M]: the abundance fitness is -0.216 ± 0.086.

For RGITCLDHENEKVNMYCVSDDQLICALCKLVGRHRDHQVESLNDR [A40E], the abundance fitness is 0.072 ± 0.069.

As to RGITCLDHENEKVNMYCVSDDQLICALCKLVGRHRDHQVGSLNDR [A40G], the abundance fitness amounted to 0.003 ± 0.052.

On to RGITCLDHENEKVNMYCVSDDQLICALCKLVGRHRDHQVWSLNDR [A40W], for which the abundance fitness is -0.155 ± 0.07.

RGITCLDHENEKVNMYCVSDDQLICALCKLVGRHRDHQVTSLNDR [A40T]: the abundance fitness is -0.068 ± 0.12.

For the variant RGITCLDHENEKVNMYCVSDDQLICALCKLVGRHRDHQVKSLNDR [A40K], the abundance fitness is -0.138 ± 0.12.

For RGITCLDHENEKVNMYCVSDDQLICALCKLVGRHRDHQVSSLNDR [A40S], the abundance fitness came to 0.063 ± 0.057.

In the case of RGITCLDHENEKVNMYCVSDDQLICALCKLVGRHRDHQVNSLNDR [A40N], the abundance fitness was -0.082 ± 0.23.

Consider RGITCLDHENEKVNMYCVSDDQLICALCKLVGRHRDHQVYSLNDR [A40Y], for which the abundance fitness was -0.2 ± 0.23.

As for RGITCLDHENEKVNMYCVSDDQLICALCKLVGRHRDHQVQSLNDR [A40Q], the abundance fitness stood at 0.09 ± 0.076.
